Target: GST-LcGLO1 (litchi)

His-PlAvh133 (natural protein)
enzymatic activity of His-LcGLO1 in vitro (glycolate oxidase assay, H2O2 read at 520 nm, 30°C) with His-PlAvh133 added: 40 % inhibition

Reference: publication PMC13140691
